The target in series [1] is another recombinant AAT (R&D systems) (UniProt P01009).
The test system of series [2] is mouse AAT in mouse plasma.
The target in series [3] is plasma-derived human alpha 1-antitrypsin (AAT) (UniProt P01009).
For series [4], the system named is recombinant human alpha 1-antitrypsin (AAT) derived from recombinant CHO cells.

Turning to trypsin, the “trypsin activity (fluorogenic peptide substrate)” value in series [1] is “drastically reduced trypsin activity in a similar manner as ... another recombinant AAT (R&D systems)”; in series [2], “drastically reduced trypsin activity in a similar manner as ... mouse plasma diluted from a sample that contained about 1.2 g/L mouse AAT”; in series [3] it was “drastically reduced trypsin activity in a similar manner as a plasma-derived AAT (Prolastin)”; in series [4], “At a concentration of 5 ng/ml, the recombinant AAT described and obtained by the methods presented herein (ExcellGene) drastically reduced trypsin activity”.
